Where two headings read alike, the source gives them in different places.

For assay [1], the target named is T1, WIPI3-Δloop (human, UniProt Q5MNZ6 1-344, Blade 2 B-C loop (75-80) deleted | Blade 6 C-D loop (264-281) deleted). Description: ITC.
Assay [2] deals with T1, WIPI3-Δloop. Description: ITC. This is another data set of the same source. In general terms: In ITC the heat of successive injections is recorded.

T1 sequence (Q5MNZ6 other isoform, or with tags, fused parts or gaps with the stated changes): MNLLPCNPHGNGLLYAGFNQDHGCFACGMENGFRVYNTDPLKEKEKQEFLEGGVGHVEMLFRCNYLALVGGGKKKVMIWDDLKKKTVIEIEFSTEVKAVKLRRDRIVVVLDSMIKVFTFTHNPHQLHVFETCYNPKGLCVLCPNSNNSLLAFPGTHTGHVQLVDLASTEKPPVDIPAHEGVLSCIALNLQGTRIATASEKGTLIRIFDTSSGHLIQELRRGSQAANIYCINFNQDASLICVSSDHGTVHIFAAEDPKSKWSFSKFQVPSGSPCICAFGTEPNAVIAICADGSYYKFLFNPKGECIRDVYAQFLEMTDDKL

Molecule PRDGEPAVTQLHPGPIVVRDGYFSRPIGSTD [GB1-tagged WIR-peptide V1380A] yielded a Kd in assay [1] of 36.9 µM.
In assay [1], PRDGEPVATQLHPGPIVVRDGYFSRPIGSTD [GB1-tagged WIR-peptide V1381A] had a Kd of 75.9 µM.
PRDGEPVVTQLHPGPIVVRAGYFSRPIGSTD [GB1-tagged WIR-peptide D1393A] gave a Kd in assay [2] of 44.4 µM.
PRDGEPQVTQLHPGPIVVRDGYFSRPIGSTD [GB1-tagged WIR-peptide V1380Q] gave a Kd in assay [1] of 14.1 µM.
For PRDGEPVQTQLHPGPIVVRDGYFSRPIGSTD [GB1-tagged WIR-peptide V1381Q], the affinity in assay [2], expressed as Kd, was 82 µM. This lies in the double-digit micromolar range.
In turn, PRDGEPVVTQLHPGPIVQRDGYFSRPIGSTD [GB1-tagged WIR-peptide V1391Q] yielded a Kd in assay [2] of 48.9 µM.
Still for that read-out and setting: for PRDGEPVVTQLHPGPQVVRDGYFSRPIGSTD [GB1-tagged WIR-peptide I1389Q] the value was 379 µM.
Turning to PRDGEPVVTQLHPGPIVVRDGAFSRPIGSTD [GB1-tagged WIR-peptide Y1395A], binding in assay [2] was characterised by a dissociation constant (Kd) of 391 µM.
Consider PRDGEPVVAQLHPGPIVVRDGYFSRPIGSTD [GB1-tagged WIR-peptide T1382A], for which, in assay [1], binding was characterised by a dissociation constant (Kd) of 14.2 µM.
PRDGEPVVQQLHPGPIVVRDGYFSRPIGSTD [GB1-tagged WIR-peptide T1382Q]: the affinity in assay [2], expressed as Kd, was 37.2 µM.

In general, Kd refers to the free concentration of one partner at which half of the binding sites on the other are occupied at equilibrium, for simple one-to-one binding. Low readings indicate a tighter complex, high ones a looser complex.

The values above are taken from article PMC7264293 (2020).
